In patent US20210221911A1 (NATIONAL CANCER CENTER JAPAN, published 2021):
Values belong to the binder of their own block, whether it stands above or below them.

Experiments:
[1] = target: T1, recombinant human tissue factor (rhTF), residues 33 to 251 of hTF with C-terminal His6 tag (human, UniProt P13726 33-251); assay: SPR, ratio of koff values, reference 1849ADC
T1 construct: range 33-251; also called rhTF antigen
Method: (§1) SPR measurement was performed by using BiaCore T200 (GE Healthcare). The recombinant human tissue factor antigen (rhTF antigen) was subjected to buffer exchange to 10 mM sodium acetate solution (pH 5.0) and the final protein concentration was adjusted to 2 to 10 μg/mL. Subsequently, contact time was set to 30 seconds and the antigen was immobilized on a CM5 sensor chip (GE Healthcare) according to a basic protocol by using amine coupling. Then, 5 dilution series of the antibody solution were prepared by diluting each ADC solution in DPBS so that the final concentrations thereof became 320 nM, 160 nM, 80 nM, 40 nM, and 20 nM.

[2] = target: T1, recombinant human tissue factor (rhTF), …; assay: SPR, Biacore T200, rhTF on CM5 chip, single-cycle kinetics, bivalent analyte model
Method: as §1

[3] = target: recombinant human tissue factor (rhTF, SEQ ID NO: 13) (human, UniProt P13726 33-251); assay: ELISA screen of hybridomas on solid-phase rhTF
Source text: (§2) Recombinant human tissue factor micellized using FCA adjuvant (rhTF, SEQ ID NO: 13) was intraperitoneally administered to Wister rats. After several immunizations, rat antisera were examined by ELISA using a solid phase having rhTFs thereon. A spleen was excised from a rat individual that had shown an increased antibody titer and splenocytes were obtained therefrom. The splenocytes and p3X63 mouse myeloma cells were fused by a PEG technique and cultivated in a HAT culture medium to select hybridoma cells. The hybridoma cells were screened to select those that reacted positively to rhTFs in ELISA and also reacted positively to cells expressing human tissue factor strongly such as an MCF7 cell in flow cytometry analysis. The selected hybridoma cells were cloned by limiting dilution to establish hybridoma cell clones that produced anti-tissue factor antibodies.

[4] = target: T2, human tissue factor on cells expressing it strongly such as MCF7 cells (human, UniProt P13726 33-295); assay: flow cytometry screen of hybridomas on cells expressing TF
T2 construct: whole, on cells; also called TF
Source text: as §2

koff relative to 1849ADC [1]: 39.3 times | Kd [2]: 35 nM | koff [2]: 0.000825 s⁻¹ | kon [2]: 26100 M⁻¹ s⁻¹
B1: 1084ADC (ADC composed of the monoclonal antibody produced by clone No. 1084 and monomethyl auristatin E) (antibody, V domains shown)
VH: QVQLKESGPGLVQPSQTLSLTCIVSGFSLTNYNVHWVRQPAGAGLEWMGVIWTDGKTDYNSTLQSRLSISRDTSKSQVFLKMNSLQAEDIATYYCARDWDTGFDYWGQGVMVTVSS
VL: DIKMTQSPSSLSASLGERVTISCRASENINNILAWYQKKEDGSVKLLIHYTSNLQSGVPSRFSGSGSGKDYSLTISGLESEDIATYYCQQAYTPYAFGAGTKLELK
modifications: MMAE joined through a maleimide-PEG12-Val-Cit-PABA linker to sulfhydryl groups of the reduced antibody; sites and number not stated
notes: Whole rat monoclonal antibody from a rat-mouse hybridoma, conjugated to MMAE

binding result [3]: binds | binding result [4]: binds
B2: monoclonal antibody produced by clone No. 1084 (antibody, V domains shown)
VH: B1 VH
VL: B1 VL
